These results are taken from patent publication US20210206865A1 (Regeneron, published 2021).

Numbering of substitutions follows the chain as printed.

Assay [1] has as its target T1, cynomolgus CD3 on cells (mfCD3 engineered Jurkat cells, primary cynomolgus CD8+ T cells) (cynomolgus, UniProt Q95LI5 22-198; Q95LI8 22-171).
T1 construct: whole, on cells; The engineered Jurkat line expresses cynomolgus CD3 epsilon and delta in place of the human versions (other chains remain human); primary cynomolgus T cells carry the whole cynomolgus complex; also called Jurkat-mfCD3; Mf (Cyno) CD3
Kind of assay: flow cytometry, mfCD3 engineered Jurkat cells, median EC50, n=2. Here is the method:
(§1) Flow cytometric analysis was utilized to determine binding of BCMA×CD3 bispecific antibodies to human and cynomolgus CD3 (Jurkat cells, mfCD3 engineered Jurkat cells, primary human CD8+ and cynomolgus CD8+ T cells). Briefly, 1e05 cells/well were incubated in the presence of FACS wash with block (PBS+1% filtered FBS+5% mouse serum) with a serial dilution of BCMA×CD3 and control antibodies for 30 minutes on ice. After incubation, the cells were washed twice with cold FACS wash (PBS+1% filtered FBS) and bound antibody was detected by incubating with Alexa647-conjugated anti-human secondary antibody on ice for an additional 30 minutes. Wells containing no antibody or secondary only were used as a control. For the detection of monkey and human T cells, a cocktail of human and cynomolgus cross-reactive antibodies to CD4, CD8 and CD16 was added to the anti-human secondary. After incubation, cells were washed, re-suspended in 200 μL cold PBS containing 1% filtered FBS and analyzed by flow cytometry on a BD FACS Canto II. Cells were gated by FSC-H by FSC-A to select singlet events, followed by side and forward scatters to select for live events. For monkey T cells, additional gating on CD8+/CD16-cells was performed.
(§2) EC50 values for FACS binding were calculated using 4-parameter non-linear regression analysis in Prism software.
A general note: In flow cytometry, cells or beads pass a laser one at a time.

For assay [2], the target named is T1, cynomolgus CD3 on cells (mfCD3 …). Put plainly: flow cytometry, primary cynomolgus CD8+ T cells, median EC50, n=1. The procedure:
as §1, §2

Assay [3] addresses T2, human BCMA on the surface of cell lines (NCI-H929, MM.1S, OPM-2, RPMI-8226, Daudi, Raji, MOLP-8, U266) (human, UniProt Q02223 1-184).
T2 construct: Endogenous BCMA of human myeloma and lymphoma cell lines; also called TNFRSF17; CD269
T2 sequence: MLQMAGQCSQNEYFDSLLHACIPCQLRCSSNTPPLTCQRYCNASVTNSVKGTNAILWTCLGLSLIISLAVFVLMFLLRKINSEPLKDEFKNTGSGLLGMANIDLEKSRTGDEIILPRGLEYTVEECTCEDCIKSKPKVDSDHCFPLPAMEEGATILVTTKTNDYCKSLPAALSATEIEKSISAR
Put plainly: flow cytometry, Alexa647 conjugate on NCI-H929 cells. Here is the method:
(§3) Cells were then washed and fixed for 25 mins at 4° C. using a 50% solution of BD Cytofix (BD, Cat #554655) diluted in PBS. […] After gating for live cells and single cells, the mean fluorescent intensity (MFI) was determined, and MFI values were plotted in Graphpad Prism using a four-parameter logistic equation over a 10-point response curve to calculate EC₅₀s. The zero condition for each dose-response curve is also included in the analysis as a continuation of the two-fold serial dilution and is represented as the lowest dose.

The target in assay [4] is T2, human BCMA on the surface of cell lines …. Kind of assay: flow cytometry, Alexa647 conjugate on MM.1S cells. The procedure: as §3

T1 sequence (Q95LI5 22-198, stated change not applied, chain 1 of 2): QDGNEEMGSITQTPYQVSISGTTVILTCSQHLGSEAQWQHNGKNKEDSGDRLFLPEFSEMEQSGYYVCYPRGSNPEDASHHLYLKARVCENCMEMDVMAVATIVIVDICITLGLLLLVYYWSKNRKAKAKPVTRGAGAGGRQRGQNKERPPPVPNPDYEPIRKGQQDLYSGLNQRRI
T1 sequence (Q95LI8 22-171, stated change not applied, chain 2 of 2): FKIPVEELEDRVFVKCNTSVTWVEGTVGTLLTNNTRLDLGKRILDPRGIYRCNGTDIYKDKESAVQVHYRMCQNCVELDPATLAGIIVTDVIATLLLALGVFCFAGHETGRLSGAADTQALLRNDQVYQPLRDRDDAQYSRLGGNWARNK

B1: bsAb25441D bispecific antibody (REGN5458), anti-BCMA x anti-CD3 (bispecific antibody, human IgG4 S228P, kappa)
heavy 1: EVQLVESGGGLVQPGGSLRLSCAASGFTFSNFWMTWVRQAPGKGLEWVANMNQDGSEKYYVDSVKGRFTISRDNAKSSLYLQMNSLRAEDTAVYYCARDREYCISTSCYDDFDYWGQGTLVTVSSASTKGPSVFPLAPCSRSTSESTAALGCLVKDYFPEPVTVSWNSGALTSGVHTFPAVLQSSGLYSLSSVVTVPSSSLGTKTYTCNVDHKPSNTKVDKRVESKYGPPCPPCPAPPVAGPSVFLFPPKPKDTLMISRTPEVTCVVVDVSQEDPEVQFNWYVDGVEVHNAKTKPREEQFNSTYRVVSVLTVLHQDWLNGKEYKCKVSNKGLPSSIEKTISKAKGQPREPQVYTLPPSQEEMTKNQVSLTCLVKGFYPSDIAVEWESNGQPENNYKTTPPVLDSDGSFFLYSRLTVDKSRWQEGNVFSCSVMHEALHNHYTQKSLSLSLGK
heavy 2: EVQLVESGGGLVQPGRSLRLSCAASGFTFDDYSMHWVRQAPGKGLEWVSGISWNSGSKGYADSVKGRFTISRDNAKNSLYLQMNSLRAEDTALYYCAKYGSGYGKFYHYGLDVWGQGTTVTVSSASTKGPSVFPLAPCSRSTSESTAALGCLVKDYFPEPVTVSWNSGALTSGVHTFPAVLQSSGLYSLSSVVTVPSSSLGTKTYTCNVDHKPSNTKVDKRVESKYGPPCPPCPAPPVAGPSVFLFPPKPKDTLMISRTPEVTCVVVDVSQEDPEVQFNWYVDGVEVHNAKTKPREEQFNSTYRVVSVLTVLHQDWLNGKEYKCKVSNKGLPSSIEKTISKAKGQPREPQVYTLPPSQEEMTKNQVSLTCLVKGFYPSDIAVEWESNGQPENNYKTTPPVLDSDGSFFLYSRLTVDKSRWQEGNVFSCSVMHEALHNRFTQKSLSLSPGK
light: not shown
notes: Anti-BCMA arm from mAb21581, anti-CD3 arm and common light chain from mAb7221G; also called bsAb25441D9; mAb25441D
As a reminder, the EC50 is the concentration needed to bring the measured effect to its halfway point. Low values mean a more potent agent, high ones a less potent agent. With B1, the EC50 in assay [1] came to 15.1 nM; in assay [2], 46.6 nM.

B2: bsAb25442D bispecific antibody (REGN5459), anti-BCMA x anti-CD3 (bispecific antibody, human IgG4 S228P, kappa)
heavy 1: B1 heavy 1
heavy 2: B1 heavy 2 with K58I, H108Y, L111M
light: not shown
notes: Anti-BCMA arm from mAb21581, anti-CD3 arm and common light chain from mAb7221G20; also called mAb25442D; mAb25442D-A647
For the molecule B2, in assay [3], it took 79 nM to reach a half-maximal effect (EC50) and the “S/N (ratio of mAb25442D-A647 MFI to Isotype-A647 MFI)” value was determined as 470. In assay [4], the EC50 was 83 nM and the “S/N (ratio of mAb25442D-A647 MFI to Isotype-A647 MFI)” value was 43.
